Source: US20090148408A1

Target: envelope glycoproteins of HIV-1HxB2 strain on Env-pseudotyped luciferase reporter virus (HIV-1 HxB2) (UniProt P04578)
Experiment: cell-based or functional assay

Substance	inhibition of HIV-1 entry (luciferase activity at 48 hours), co-incubation of L. jensenii Xna-651 bacteria at 2.5x10^8/ml with virus and HeLa CD4-CXCR4 cells [%]	inhibition of HIV-1 entry (luciferase activity at 48 hours), co-incubation of L. jensenii Xna-651 bacteria at 5x10^8/ml with virus and HeLa CD4-CXCR4 cells [%]
2D-CD4 secreted by L. jensenii harboring pOSEL651 (P23 promoter-CbsAss-2D-CD4) (from UniProt P01730 26-208)	79	
2D-CD4 secreted by L. jensenii harboring pOSEL651 (P23 promoter-CbsAss-2D-CD4) (from UniProt P01730 26-208) (receptor)		90
